The source of these data is patent US20210115098A1.

For the experiment, the target named is activin-like kinase 4 and/or 5 receptor (ALK4/5). The experiment can be described thus: cell-based or functional assay.

Substance “Cumulin-like GDF9_H369N (Mutant 7) (from UniProt O60383 30-318) (ligand)” showed a Smad-2/3 responsive luciferase reporter, maximal response at 50 ng/mL relative to Mutant 1 of 10 % reduction.
